What all share (experiment): cell-based or functional assay
The target of assay [1] is PTHR2 fused to PK2 (UniProt P49190).
Assay [2] has as its target SALPR fused to PK2 (UniProt Q9NSD7).
Assay [3] concerns the target MC3R fused to PK2 (UniProt P41968).
Assay [4] has as its target SSTR1 fused to PK1 (UniProt P30872).
For assay [5], the target named is T1, CCR6 fused to PK1 (UniProt P51684).
T1 sequence (looked up): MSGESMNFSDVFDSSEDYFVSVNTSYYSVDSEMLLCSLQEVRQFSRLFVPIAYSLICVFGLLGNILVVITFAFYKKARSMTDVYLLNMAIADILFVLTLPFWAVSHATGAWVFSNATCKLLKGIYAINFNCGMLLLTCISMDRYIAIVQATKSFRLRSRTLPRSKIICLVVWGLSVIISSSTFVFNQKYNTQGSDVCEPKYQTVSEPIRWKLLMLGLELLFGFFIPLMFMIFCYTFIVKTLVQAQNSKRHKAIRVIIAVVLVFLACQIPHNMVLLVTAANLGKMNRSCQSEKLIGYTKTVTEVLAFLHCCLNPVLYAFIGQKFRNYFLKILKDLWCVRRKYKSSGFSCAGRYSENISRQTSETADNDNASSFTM

For assay [6], the target named is T2, CCR6 fused to PK2 (UniProt P51684).
T2 sequence (P51684 whole entry, species assumed, looked up): T1 sequence (looked up)

The target of assay [7] is T3, CCR4 fused to PK2 (UniProt P51679).
T3 sequence (P51679 whole entry, species assumed, looked up): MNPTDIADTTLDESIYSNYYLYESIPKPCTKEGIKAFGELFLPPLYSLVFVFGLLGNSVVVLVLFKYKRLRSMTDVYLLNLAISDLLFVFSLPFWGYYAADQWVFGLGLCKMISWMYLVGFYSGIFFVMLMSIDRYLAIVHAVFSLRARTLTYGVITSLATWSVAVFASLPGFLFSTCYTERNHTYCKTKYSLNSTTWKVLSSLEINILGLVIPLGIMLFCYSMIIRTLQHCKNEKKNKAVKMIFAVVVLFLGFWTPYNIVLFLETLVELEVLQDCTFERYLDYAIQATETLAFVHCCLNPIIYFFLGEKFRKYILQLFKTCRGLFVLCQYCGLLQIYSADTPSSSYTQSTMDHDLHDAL

The target in assay [8] is T4, CCR4 fused to PK1 (UniProt P51679).
T4 sequence (looked up): T3 sequence (P51679 whole entry, species assumed, looked up)

Assay [9] concerns the target SSTR4 fused to PK1 (UniProt P31391).
Assay [10] addresses SSTR1 fused to PK2 (UniProt P30872).
In assay [11] the target is SSTR4 fused to PK2 (UniProt P31391).
Assay [12] deals with T5, CRHR2 fused to PK1 (UniProt Q13324).
T5 sequence (looked up): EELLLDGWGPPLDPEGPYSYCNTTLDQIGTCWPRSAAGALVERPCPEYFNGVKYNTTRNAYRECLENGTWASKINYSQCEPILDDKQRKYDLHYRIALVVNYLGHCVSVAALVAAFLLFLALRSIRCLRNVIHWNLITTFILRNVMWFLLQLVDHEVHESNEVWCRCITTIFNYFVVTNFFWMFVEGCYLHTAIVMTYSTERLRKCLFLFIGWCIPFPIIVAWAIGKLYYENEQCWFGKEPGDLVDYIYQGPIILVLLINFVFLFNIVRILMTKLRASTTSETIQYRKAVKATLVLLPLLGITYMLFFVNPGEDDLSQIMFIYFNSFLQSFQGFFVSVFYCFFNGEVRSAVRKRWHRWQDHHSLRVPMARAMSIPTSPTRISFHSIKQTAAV

The target in assay [13] is T6, CRHR2 fused to PK2 (UniProt Q13324).
T6 sequence (Q13324 whole entry, species assumed, looked up): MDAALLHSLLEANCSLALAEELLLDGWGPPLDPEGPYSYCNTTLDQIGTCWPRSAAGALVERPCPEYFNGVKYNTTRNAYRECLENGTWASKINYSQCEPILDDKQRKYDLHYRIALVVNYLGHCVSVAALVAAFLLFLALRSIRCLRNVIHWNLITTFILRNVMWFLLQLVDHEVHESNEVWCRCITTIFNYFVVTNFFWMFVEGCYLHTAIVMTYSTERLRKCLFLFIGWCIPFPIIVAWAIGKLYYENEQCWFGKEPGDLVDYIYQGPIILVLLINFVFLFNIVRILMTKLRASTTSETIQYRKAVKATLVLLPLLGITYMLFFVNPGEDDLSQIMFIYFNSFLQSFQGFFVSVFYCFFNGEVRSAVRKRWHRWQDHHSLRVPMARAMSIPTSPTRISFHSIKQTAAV

PTHR2 fused to PK2, sequence (P49190 whole entry, the tested form may be a part): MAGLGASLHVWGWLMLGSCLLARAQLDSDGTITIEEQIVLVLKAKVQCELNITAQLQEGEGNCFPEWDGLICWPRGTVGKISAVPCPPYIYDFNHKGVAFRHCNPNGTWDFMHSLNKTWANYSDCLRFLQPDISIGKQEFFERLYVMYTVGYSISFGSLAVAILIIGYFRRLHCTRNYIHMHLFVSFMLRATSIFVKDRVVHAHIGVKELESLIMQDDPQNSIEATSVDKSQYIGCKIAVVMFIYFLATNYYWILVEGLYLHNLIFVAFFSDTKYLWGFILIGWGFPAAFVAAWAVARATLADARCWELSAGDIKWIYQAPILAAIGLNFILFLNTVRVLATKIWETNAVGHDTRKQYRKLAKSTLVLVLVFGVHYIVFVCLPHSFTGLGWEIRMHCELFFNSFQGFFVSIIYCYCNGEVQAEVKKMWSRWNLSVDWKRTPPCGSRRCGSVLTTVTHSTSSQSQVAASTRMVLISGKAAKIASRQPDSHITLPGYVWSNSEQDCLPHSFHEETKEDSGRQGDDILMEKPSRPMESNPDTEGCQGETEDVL
SSTR1 fused to PK1, sequence (P30872 whole entry, the tested form may be a part): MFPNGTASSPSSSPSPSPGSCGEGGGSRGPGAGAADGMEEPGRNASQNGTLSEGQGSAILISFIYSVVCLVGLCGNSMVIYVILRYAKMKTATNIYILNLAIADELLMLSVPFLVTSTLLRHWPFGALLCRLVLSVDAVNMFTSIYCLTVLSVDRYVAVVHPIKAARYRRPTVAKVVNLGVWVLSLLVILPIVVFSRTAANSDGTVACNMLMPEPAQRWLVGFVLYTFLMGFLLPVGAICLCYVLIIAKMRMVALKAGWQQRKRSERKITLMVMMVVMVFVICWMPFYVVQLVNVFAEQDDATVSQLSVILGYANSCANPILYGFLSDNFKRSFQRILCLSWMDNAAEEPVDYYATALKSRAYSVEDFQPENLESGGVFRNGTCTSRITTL
SALPR fused to PK2, sequence (Q9NSD7 whole entry, the tested form may be a part): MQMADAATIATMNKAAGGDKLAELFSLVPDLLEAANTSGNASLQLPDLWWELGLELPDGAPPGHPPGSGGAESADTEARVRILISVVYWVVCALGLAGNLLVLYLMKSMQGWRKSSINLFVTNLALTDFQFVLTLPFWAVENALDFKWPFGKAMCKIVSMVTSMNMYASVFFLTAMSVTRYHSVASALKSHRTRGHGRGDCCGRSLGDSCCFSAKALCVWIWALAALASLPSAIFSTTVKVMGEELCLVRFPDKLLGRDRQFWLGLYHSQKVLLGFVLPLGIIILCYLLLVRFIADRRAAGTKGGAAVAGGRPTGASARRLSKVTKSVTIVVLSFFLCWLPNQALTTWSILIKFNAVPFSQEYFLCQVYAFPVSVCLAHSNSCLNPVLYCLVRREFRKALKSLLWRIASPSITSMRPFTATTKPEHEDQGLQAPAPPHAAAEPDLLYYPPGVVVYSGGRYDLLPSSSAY
MC3R fused to PK2, sequence (P41968 whole entry, the tested form may be a part): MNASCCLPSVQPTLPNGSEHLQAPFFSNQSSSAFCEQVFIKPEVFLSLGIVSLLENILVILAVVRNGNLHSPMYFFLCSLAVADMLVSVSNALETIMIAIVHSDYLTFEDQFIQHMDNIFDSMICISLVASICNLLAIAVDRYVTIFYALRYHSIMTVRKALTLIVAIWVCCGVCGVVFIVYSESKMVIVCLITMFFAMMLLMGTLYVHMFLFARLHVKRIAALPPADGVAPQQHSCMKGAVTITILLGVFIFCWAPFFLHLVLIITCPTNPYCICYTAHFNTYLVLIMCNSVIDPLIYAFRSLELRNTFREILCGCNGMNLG
SSTR4 fused to PK2, sequence (P31391 whole entry, the tested form may be a part): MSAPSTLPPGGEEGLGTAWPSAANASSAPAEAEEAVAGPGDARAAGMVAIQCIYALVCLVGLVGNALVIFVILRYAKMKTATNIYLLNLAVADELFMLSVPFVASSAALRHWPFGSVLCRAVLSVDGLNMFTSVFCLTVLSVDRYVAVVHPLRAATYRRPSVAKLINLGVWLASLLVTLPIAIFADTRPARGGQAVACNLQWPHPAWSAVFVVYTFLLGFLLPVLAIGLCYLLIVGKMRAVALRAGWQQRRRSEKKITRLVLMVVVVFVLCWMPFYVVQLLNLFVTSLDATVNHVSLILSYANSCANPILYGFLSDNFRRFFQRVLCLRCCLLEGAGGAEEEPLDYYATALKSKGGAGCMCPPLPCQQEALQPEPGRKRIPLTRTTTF
SSTR4 fused to PK1, sequence (P31391 whole entry, the tested form may be a part): as above
SSTR1 fused to PK2, sequence (P30872 whole entry, the tested form may be a part): as the sequence (P30872 whole entry, the tested form may be a part) above

For “PTH (1-34) (from UniProt P01270 32-65) (peptide)”, the Fold induct. (arrestin recruitment, beta-galactosidase EFC, saturating ligand) in assay [1] was determined as 72.9 fold. In assay [2], “Relaxin-3 (from UniProt Q8WXF3 26-142) (ligand)” displayed a Fold induct. (arrestin recruitment, beta-galactosidase EFC, saturating ligand) of 1.8 fold. In turn, “aMSH (from UniProt P01189 138-150) (peptide)” registered a Fold induct. (arrestin recruitment, beta-galactosidase EFC, saturating ligand) in assay [3] of 3.2 fold.

In assay [4], TYR-SRIF14 (peptide) had a Fold induct. (arrestin recruitment, beta-galactosidase EFC, saturating ligand) of 1 fold. For the molecule “CCL20 (from UniProt P78556 27-96) (ligand)”, the values for the Fold induct. (arrestin recruitment, beta-galactosidase EFC, saturating ligand) in [5] and in assay [6] were 1.4 fold and 6.5 fold, respectively.

B1: CCL22 (ligand, UniProt O00626 25-93, looked up)
chain: GPYGANMEDSVCCRDYVRYRLPLRVVKHFYWTSDSCPRPGVVLLTFRDKEICADPRVPWVKMILNKLSQ
Turning to B1, the Fold induct. (arrestin recruitment, beta-galactosidase EFC, saturating ligand) is 3 fold in [7] and 18.9 fold in assay [8]. For the molecule SLALADDAAFRERARLLAALERRHWLNSYMHKLLVLDAP (peptide, UniProt Q96A98 62-100, looked up) [TIP39], the Fold induct. (arrestin recruitment, beta-galactosidase EFC, saturating ligand) in assay [1] was found to be 2.8 fold. In the case of SANSNPAMAPRERKAGCKNFFWKTFTSC (peptide, UniProt P61278 89-116, looked up) [Somatostatin-28], the Fold induct. (arrestin recruitment, beta-galactosidase EFC, saturating ligand) in assay [4] came out at 1.2 fold; in assay [9], 1.3 fold; in assay [10], 1.3 fold; in assay [11], 1.6 fold. Take QGPPISIDLSLELLRKMIEIEKQEKEKQQAANNRLLLDTI (peptide, UniProt P01144 1-40, looked up) [Sauvagine]: the Fold induct. (arrestin recruitment, beta-galactosidase EFC, saturating ligand) amounted to 13.1 fold in assay [12] and 17.4 fold in assay [13].

The values are drawn from patent US20090098588A1.
